This note sets out measurements from US20100144634A1 (published 2010).

Series [1] addresses B-domainless derivative of human factor VIII, FVIII-SQ, P00451.
Series [2] addresses T1, human factor VIII derivative lacking the entire B domain and acidic region a3 (741-1689), FVIII-2RKR, P00451.
T1 chain 1: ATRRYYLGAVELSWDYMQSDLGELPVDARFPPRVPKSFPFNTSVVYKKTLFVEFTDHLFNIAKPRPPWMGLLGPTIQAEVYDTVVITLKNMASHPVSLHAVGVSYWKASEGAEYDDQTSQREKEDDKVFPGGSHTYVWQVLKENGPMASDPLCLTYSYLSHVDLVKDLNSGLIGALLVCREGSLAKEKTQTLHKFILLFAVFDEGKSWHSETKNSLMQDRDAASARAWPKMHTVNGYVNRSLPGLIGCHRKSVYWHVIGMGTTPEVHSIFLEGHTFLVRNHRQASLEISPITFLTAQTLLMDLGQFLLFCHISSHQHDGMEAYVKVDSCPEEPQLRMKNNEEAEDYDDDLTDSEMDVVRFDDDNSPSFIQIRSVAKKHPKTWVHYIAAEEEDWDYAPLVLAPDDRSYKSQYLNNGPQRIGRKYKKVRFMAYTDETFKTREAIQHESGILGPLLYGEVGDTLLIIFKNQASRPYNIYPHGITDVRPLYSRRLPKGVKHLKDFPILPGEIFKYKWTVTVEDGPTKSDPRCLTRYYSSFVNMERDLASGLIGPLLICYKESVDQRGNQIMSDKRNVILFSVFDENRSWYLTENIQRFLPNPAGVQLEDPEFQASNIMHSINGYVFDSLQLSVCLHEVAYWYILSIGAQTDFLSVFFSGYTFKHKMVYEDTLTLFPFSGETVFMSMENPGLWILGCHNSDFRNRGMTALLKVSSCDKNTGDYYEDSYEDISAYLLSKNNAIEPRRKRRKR
T1 chain 2: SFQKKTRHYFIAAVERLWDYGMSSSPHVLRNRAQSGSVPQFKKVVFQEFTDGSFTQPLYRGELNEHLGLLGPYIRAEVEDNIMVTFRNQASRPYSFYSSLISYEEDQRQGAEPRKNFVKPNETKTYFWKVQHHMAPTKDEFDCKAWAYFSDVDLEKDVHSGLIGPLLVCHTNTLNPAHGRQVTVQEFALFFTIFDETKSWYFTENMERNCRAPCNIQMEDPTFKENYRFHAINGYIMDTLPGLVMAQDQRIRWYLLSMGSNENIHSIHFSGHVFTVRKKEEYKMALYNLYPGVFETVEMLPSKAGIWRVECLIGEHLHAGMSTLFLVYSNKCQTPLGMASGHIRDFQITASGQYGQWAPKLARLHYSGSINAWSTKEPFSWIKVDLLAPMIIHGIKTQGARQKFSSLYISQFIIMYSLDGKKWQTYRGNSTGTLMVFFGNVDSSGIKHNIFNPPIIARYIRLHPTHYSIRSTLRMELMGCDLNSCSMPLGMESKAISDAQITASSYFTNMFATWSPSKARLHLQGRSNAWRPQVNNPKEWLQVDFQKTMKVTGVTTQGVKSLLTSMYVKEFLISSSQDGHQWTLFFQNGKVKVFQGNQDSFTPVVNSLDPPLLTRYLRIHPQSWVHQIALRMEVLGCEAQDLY

Series [3] deals with recombinant human full-length coagulation factor VIII, P00451.
Series [4] concerns the target T2, von Willebrand factor pre-denatured with 1.5 M guanidine-HCl at 37 C for two hours (UniProt P04275 764-2813).
T2 construct: mature; Same polypeptide as m1; also called VWF**; denatured VWF
Description: SPR (BIAcore), guanidine-HCl denatured VWF injected over immobilised FL-A13, equilibrium fit. A general note: Surface plasmon resonance follows binding to a sensor surface in real time, without labels.

For series [5], the target named is T3, von Willebrand factor (VWF), purified plasma-derived, multimeric, native (UniProt P04275 764-2813).
T3 construct: mature; human is implied; also called pvWF; plasma VWF
Description: SPR (BIAcore), VWF injected under flow over FL-A13 immobilised on CM5, equilibrium fit, no EDTA. Here is the method:
Briefly, the surface of a carboxymethylated dextran (CM5) chip was activated by injection of 35 μl mixture (1:1, vol:vol) of 0.4 M 1-ethyl-3-(3-dimethylaminopropyl) carbodiimide and 0.1 M N-hydroxysuccinimide according to manufacturer's instruction (BIAcore, Uppsala, Sweden). Approximately 2,000 to 8,000 response units (RU) (2˜10 ng/mm²) of purified recombinant proteins were covalently attached onto the activated CM5 chip surface. The control surface was activated similarly, but blocked by same amount of BSA (Sigma, St. Louis, Mo.). The reactive groups on the dextran surface were blocked by injection of 35 μl of 1 M ethanolamine (pH 8.5) at flow rate of 5 μl per min for 7 min. Then, purified plasma VWF at various concentrations (0-250 μg/ml or 0-1,000 nM as in FIG. 3; 0-125 μg/ml or 0-500 nM as in FIG. 4) in 10 mM HEPES, 150 mM NaCl, pH 7.5 containing 0.005% Tween 20 and 2 mg/ml BSA (HBS-T) were injected and passed over the surface at injection rate 10 to 100 μl/min or 20 μl/min for 3-5 min. […] The dissociation constants, KD (S) at the equilibrium were determined by fitting the data from the binding isotherm using a non-linear regression curve on the PRISM4 software (GraphPad Software, Inc., San Diego, Calif.). […]

Series [6] deals with T3, von Willebrand factor (VWF), purified …. Description: SPR (BIAcore), VWF injected under flow over immobilised FL-A13, equilibrium fit, in the presence of 10 mM EDTA. The method, then: Approximately 2,000 to 8,000 response units (RU) (2˜10 ng/mm²) of purified recombinant proteins were covalently attached onto the activated CM5 chip surface. The control surface was activated similarly, but blocked by same amount of BSA (Sigma, St. Louis, Mo.). The reactive groups on the dextran surface were blocked by injection of 35 μl of 1 M ethanolamine (pH 8.5) at flow rate of 5 μl per min for 7 min. Then, purified plasma VWF at various concentrations (0-250 μg/ml or 0-1,000 nM as in FIG. 3; 0-125 μg/ml or 0-500 nM as in FIG. 4) in 10 mM HEPES, 150 mM NaCl, pH 7.5 containing 0.005% Tween 20 and 2 mg/ml BSA (HBS-T) were injected and passed over the surface at injection rate 10 to 100 μl/min or 20 μl/min for 3-5 min. The HBS-T replaced the protein solution and continued to flow for approximately 4 min; further washing with HBS-T for 20-30 min regenerated the surfaces prior to the next injection. The dissociation constants, KD (S) at the equilibrium were determined by fitting the data from the binding isotherm using a non-linear regression curve on the PRISM4 software (GraphPad Software, Inc., San Diego, Calif.).
Fitting the data directly using BIAcore evaluation software, although it is relatively easy, may overestimate the binding affinity between VWF and ADAMTS13 due to the heterogeneity of VWF molecules. […]

B1: full-length ADAMTS13, recombinant, C-terminal V5-His (enzyme, UniProt Q76LX8 75-1427, looked up, not shown: small tags and cut ends)
chain: AAGGILHLELLVAVGPDVFQAHQEDTERYVLTNLNIGAELLRDPSLGAQFRVHLVKMVILTEPEGAPNITANLTSSLLSVCGWSQTINPEDDTDPGHADLVLYITRFDLELPDGNRQVRGVTQLGGACSPTWSCLITEDTGFDLGVTIAHEIGHSFGLEHDGAPGSGCGPSGHVMASDGAAPRAGLAWSPCSRRQLLSLLSAGRARCVWDPPRPQPGSAGHPPDAQPGLYYSANEQCRVAFGPKAVACTFAREHLDMCQALSCHTDPLDQSSCSRLLVPLLDGTECGVEKWCSKGRCRSLVELTPIAAVHGRWSSWGPRSPCSRSCGGGVVTRRRQCNNPRPAFGGRACVGADLQAEMCNTQACEKTQLEFMSQQCARTDGQPLRSSPGGASFYHWGAAVPHSQGDALCRHMCRAIGESFIMKRGDSFLDGTRCMPSGPREDGTLSLCVSGSCRTFGCDGRMDSQQVWDRCQVCGGDNSTCSPRKGSFTAGRAREYVTFLTVTPNLTSVYIANHRPLFTHLAVRIGGRYVVAGKMSISPNTTYPSLLEDGRVEYRVALTEDRLPRLEEIRIWGPLQEDADIQVYRRYGEEYGNLTRPDITFTYFQPKPRQAWVWAAVRGPCSVSCGAGLRWVNYSCLDQARKELVETVQCQGSQQPPAWPEACVLEPCPPYWAVGDFGPCSASCGGGLRERPVRCVEAQGSLLKTLPPARCRAGAQQPAVALETCNPQPCPARWEVSEPSSCTSAGGAGLALENETCVPGADGLEAPVTEGPGSVDEKLPAPEPCVGMSCPPGWGHLDATSAGEKAPSPWGSIRTGAQAAHVWTPAAGSCSVSCGRGLMELRFLCMDSALRVPVQEELCGLASKPGSRREVCQAVPCPARWQYKLAACSVSCGRGVVRRILYCARAHGEDDGEEILLDTQCQGLPRPEPQEACSLEPCPPRWKVMSLGPCSASCGLGTARRSVACVQLDQGQDVEVDEAACAALVRPEASVPCLIADCTYRWHVGTWMECSVSCGDGIQRRRDTCLGPQAQAPVPADFCQHLPKPVTVRGCWAGPCVGQGTPSLVPHEEAAAPGRTTATPAGASLEWSQARGLLFSPAPQPRRLLPGPQENSVQSSACGRQHLEPTGTIDMRGPGQADCAVAIGRPLGEVVTLRVLESSLNCSAGDMLLLWGRLTWRKMCRKLLDMTFSSKTNTLVVRQRCGRPGGGVLLRYGSQLAPETFYRECDMQLFGPWGEIVSPSLSPATSNAGGCRLFINVAPHARIAIHALATNMGAGTEGANASYILIRDTHSLRTTAFHGQQVLYWESESSQAEMEFSEGFLKAQASLRGQYWTLQSWVPEMQDPQSWKGKEGT
notes: mature; also called FL-A13; FL-AD13
By Kd is commonly meant the constant that tells how readily two partners part at equilibrium. Take B1: the “increase of the initial rate of cleavage of FRETS-vWF73 and GST-vWF73 by ADAMTS13” value in series [1], in series [2] and in series [3] was “by a factor of 2 or 3” throughout. The results for the Kd in series [4], in series [5] and in series [6] were 83 nM, 50 nM and 77 nM, respectively.
